From paper PMC1849897 (Nucleic Acids Research, 2007)

Target: the molecule itself
Assay: SEC

B1: Py-DmBLM (Drosophila Bloom's syndrome helicase homolog with an N-terminal polyoma epitope tag) (enzyme)
chain: not shown
With B1 the “stoichiometry N” value was roughly 7.
